From patent US7811569 (INSTITUT PASTEUR, dated 2010)

B1: recombinant MSP-3194-257 (other)
chain: HERAKNAYQKANQAVLKAKEASSYDYILGWEFGGGVPEHKKEENMLSHLYVSSKDKENISKENE
notes: also called panning antigen
B2: RAM2 Fab-ΔpIII (Fab, V domains shown)
VH: QVQLQESGGGLVKPGGSLKLSCAASGFTFSSYGMSWVRQTPDKRLEWVATISSGGSYTYYPDSVKGRFTISRDNAKNTLYLQMSSLKSEDTAMYYCARLYYGYRYYFDYWGQGTMVTVSS
VL: DIQLTQSPSSLSASIGDRVTITCQASQDITNSLNWYQQRPGQAPKLLIYDAFTLKTGVPSRFSGRGSGTSFTIAINSFQAEDIGTYFCQQSHRVPFTFGGGTRVEIKR
notes: Human Fab made in E. coli from pFAB73H; VH is joined to human gamma 1 CH1 (residues 118 to 230), then a spacer with a trypsin site and truncated f1 phage pIII (ΔpIII); The light chain is VK plus human kappa constant domain; also called Fab-ΔpIII RAM2; RAM2 in the Fab-ΔpIII format

How the values were obtained:
[1] = biological target: T1, native MSP-3 antigen of Plasmodium falciparum clone 3D7 schizonts and merozoites (Plasmodium falciparum); assay: flow cytometry on ethanol-fixed permeabilized schizonts, FITC anti-human Fab
T1 construct: whole, on cells; The motif 220-230 is also present in MSP-6; also called native malaria antigen; parasite proteins
Procedure: The gating was placed to include the majority of the infected cells. The gating was used for the histograms described below.
Parasites were then washed in PBS with 1% BSA, incubated over night with antibody (Fab-ΔpIII or IgG1), washed twice with PBS supplemented with 1% BSA and incubated for 30 minutes with FITC-conjugated goat anti-human Fab (Sigma F5512) diluted 1:25. Cells were analyzed in a Coulter EPICS-2 flow cytometer. Hib-CP specific antibody was used as control in corresponding concentrations.

[2] = biological target: B2; assay: antigen competition ELISA; soluble antigen 4 nM to 1250 nM against coated MSP-3194-257
[3] = biological target: B1; assay: direct ELISA, coated recombinant antigen
[4] = biological target: T2, synthetic peptide MSP-3190-217 (Plasmodium falciparum); assay: ELISA on synthetic peptides
T2 peptide: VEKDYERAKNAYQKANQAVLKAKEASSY

[5] = biological target: T3, synthetic peptide MSP-3211-237 (Plasmodium falciparum); assay: ELISA on synthetic peptides
T3 construct: also called MSP-3b
T3 peptide: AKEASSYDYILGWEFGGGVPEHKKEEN

| Binder | percent of events under the bar M1 [1] [%] | further results |
| --- | --- | --- |
| RAM1 Fab-ΔpIII (Fab, V domains shown, Human Fab made in E. coli from pFAB73H; VH is joined to human gamma 1 CH1 (residues 118 to 230 of the H chain), then a spacer with a trypsin cleavage site and truncated f1 phage protein pIII (ΔpIII); The light chain is VK plus human kappa constant domain; also called Fab-ΔpIII RAM1; RAM1 in the Fab-ΔpIII format) VH: QVQLVQSGGGVVQPGRSLRLSCAASGFTFSSYAMHWVRQAPGKGLEWVAVISYDGSNKYYADSVKGRFTISRDNSKNTLYLQMSSLRAEDTAVYYCVKGASSWSTGTLVTVSS VL: DIVMMQSPATLSASVGDRVTITCRASQSISSWLAWYQQKPGKAPNLLIYKASSLESGVPSRFSGSGSGTEFTLTISSLQPDDFATYYCQQYKSFPYTFGQGTRLEIKR | 76 |  |
| RAM1 IgG1 (antibody, V domains shown, Intact human IgG1 kappa, allotype G1m(a,z), made in CHO cells from pLNOH2 and pLNOK; also called IgG1 anti-MSP3; RAM1 in the IgG1 format) VH: QVQLVQSGGGVVQPGRSLRLSCAASGFTFSSYAMHWVRQAPGKGLEWVAVISYDGSNKYYADSVKGRFTISRDNSKNTLYLQMSSLRAEDTAVYYCVKGASSWSTGTLVTVSS VL: DIVMMQSPATLSASVGDRVTITCRASQSISSWLAWYQQKPGKAPNLLIYKASSLESGVPSRFSGSGSGTEFTLTISSLQPDDFATYYCQQYKSFPYTFGQGTRLEIKR | 47 |  |
| B1 |  | binding result [2]: binds |
| B2 | 28 | binding result [3]: binds |
| RAM2 IgG1 (antibody, V domains shown, Intact human IgG1 kappa, allotype G1m(a,z), made in CHO cells) VH: QVQLQESGGGLVKPGGSLKLSCAASGFTFSSYGMSWVRQTPDKRLEWVATISSGGSYTYYPDSVKGRFTISRDNAKNTLYLQMSSLKSEDTAMYYCARLYYGYRYYFDYWGQGTMVTVSS VL: DIQLTQSPSSLSASIGDRVTITCQASQDITNSLNWYQQRPGQAPKLLIYDAFTLKTGVPSRFSGRGSGTSFTIAINSFQAEDIGTYFCQQSHRVPFTFGGGTRVEIKR |  | binding result [4]: binds; binding result [5]: binds |
| RAM3 Fab-ΔpIII (Fab, V domains shown, Human Fab made in E. coli from pFAB73H; VH is joined to human gamma 1 CH1 (residues 118 to 230), then a spacer with a trypsin site and truncated f1 phage pIII (ΔpIII); The light chain is VK plus human kappa constant domain; also called Fab-ΔpIII RAM3; RAM3 in the Fab-ΔpIII format) VH: QVQLVQSGGGVVQPGRSLRLSCAASGFTFSSYAMHWVRQAPGKGLEWVAVISYDGSNKYYADSVKGRFTISRDNSKNTLYLQMNSLRAEDKAVYYCARDSGGIAARLGGYFDLWGRGTTVTVSS VL: DIRMTQSPSFLSASVGDRVTITCRASQGISSYLAWYQQKPGKAPKLLIYAASTLQSGVPSRFSGSGSGTEFTLTISSLQPEDFATYYCQQGPTFGGGTKVEIKR | 4 |  |
